Test results from US20200123264A1.

How the values were obtained:
[1] = target: extracellular domain of human LEPR with an N-terminal myc-myc tag, GPI-anchored on HEK293 cells (human) (UniProt P48357); assay: FACS, secondary alone, HEK293/hLEPR-GPI cells, 1 µM Leptin
[2] = target: extracellular domain of human LEPR with an N-terminal myc-myc tag, GPI-anchored on HEK293 cells (human) (UniProt P48357); assay: FACS, secondary alone, HEK293/hLEPR-GPI cells, no added Leptin

extracellular domain of human LEPR with an N-terminal myc-myc tag, GPI-anchored on HEK293 cells (human), sequence (P48357 22-839 limits assumed): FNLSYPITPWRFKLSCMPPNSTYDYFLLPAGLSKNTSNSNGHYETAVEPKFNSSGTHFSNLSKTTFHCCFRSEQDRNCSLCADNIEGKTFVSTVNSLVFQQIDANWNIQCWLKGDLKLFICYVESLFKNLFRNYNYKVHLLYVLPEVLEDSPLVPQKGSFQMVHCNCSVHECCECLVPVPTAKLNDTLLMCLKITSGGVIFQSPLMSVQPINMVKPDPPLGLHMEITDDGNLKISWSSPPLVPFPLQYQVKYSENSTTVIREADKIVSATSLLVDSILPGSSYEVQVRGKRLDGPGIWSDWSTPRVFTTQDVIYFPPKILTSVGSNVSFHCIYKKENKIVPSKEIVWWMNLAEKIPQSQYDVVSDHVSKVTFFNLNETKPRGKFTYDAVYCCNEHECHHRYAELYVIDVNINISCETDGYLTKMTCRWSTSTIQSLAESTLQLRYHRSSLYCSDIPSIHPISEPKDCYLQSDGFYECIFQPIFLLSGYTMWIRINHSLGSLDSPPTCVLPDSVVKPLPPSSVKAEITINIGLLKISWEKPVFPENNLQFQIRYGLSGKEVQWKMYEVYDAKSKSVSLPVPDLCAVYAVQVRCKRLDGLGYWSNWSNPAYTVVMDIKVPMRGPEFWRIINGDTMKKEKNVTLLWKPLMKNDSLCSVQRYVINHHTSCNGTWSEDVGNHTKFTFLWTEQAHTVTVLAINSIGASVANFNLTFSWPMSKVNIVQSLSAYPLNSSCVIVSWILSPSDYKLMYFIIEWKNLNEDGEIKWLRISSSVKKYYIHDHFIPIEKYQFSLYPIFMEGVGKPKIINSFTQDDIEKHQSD

| Substance | Binding Ratio (normalized to unstained) [1] [fold] | Binding Ratio (normalized to unstained) [2] [fold] |
| --- | --- | --- |
| Anti-human IgG secondary antibody alone | 3 | 3 |
| Anti-mouse IgG secondary antibody alone | 2 | 2 |
